# Test results taken from patent US20100272719A1.
# Molecular target: VEGF (isoform not given)
# Assay: cell-based or functional assay
Substance,"HUVEC tube formation on Matrigel, percent inhibition at 50 µg/ml","HUVEC chemotactic migration (Transwell), percent blocked at 10 µg FP3′","HUVEC chemotactic migration (Transwell), percent blocked at 20 µg FP3′","VEGF-induced cell proliferation, percent blocked at 10.7 nM FP3′","rat aortic ring microvessel sprouting, percent inhibition at 100 µg/ml","rat aortic ring microvessel sprouting, percent inhibition at 200 µg/ml","rat aortic ring vessel outgrowth, more inhibition than Avastin"
Avastin (bevacizumab) (antibody),41.3%,–,–,–,–,–,–
FP3′ (FLTd2-KDRd3-KDRd4-Fc chimeric fusion protein) (Fc fusion),72.3%,78.3%,94.7%,82.6%,70.4%,90%,15 to 33%
